From PMC8609364, “A Selective Tether Recruits Activated Response Regulator CheB to Its Chemoreceptor Substrate” (mBio, 2021)

Experiments:
[1] = tested on: Tar4EΔpp (chemoreceptor Tar, all-glutamyl, lacking NWETF); assay: CheB binding to Tar4EΔpp (pentapeptide-lacking) in Nanodiscs (biolayer interferometry); set-up: species or system E. coli; conditions: Tar 4E, pentapeptide no, BLI, pH 7.5, 2% BSA (plus 2 mM DTT for CheB and CheBc); for dwell time (1/koff): calculated from mean koff; for dwell time (1/koff) / KA (equilibrium association constant): propagated SD; for KA (equilibrium association constant): calculated from mean kon and koff; for kon (apparent association rate constant): mean ± SD of at least three independent experiments
Procedure: (§1) We determined the kinetics of association and dissociation of methylesterase/deamidase CheB in its low- and high-activity form with the E. coli aspartate chemoreceptor Tar using biolayer interferometry ([22], [23]) and isolated receptor homodimers in Nanodiscs ([24], [25]). Apparent rate constants of association and dissociation were derived from global fits of time courses for binding and release (see Fig. S1 in the supplemental material). Equilibrium dissociation constants were calculated from those apparent rate constants.
(§2) E. coli CheB and Salmonella CheB D56C/C207S/C309S and D56C/S164A/C207S/C309S were purified as described previously ([11]). CheBC (amino acids [aa] 153 to 349) was purified using the procedure of West et al. ([40]), except that Bio-Gel P-60, was not used. CheB D56C/C207S/C309S and CheB D56C/S164A/C207S/C309S were modified to create a disulfide-linked phosphoryl group on D56C following the procedure described in reference but using a 10-fold molar excess of DTNB [Ellman’s reagent, 5,5′-disulfanediylbis(2-nitrobenzoic acid)] rather than 90-fold and a 50-fold molar excess Na3SPO3 rather than 1,000-fold. The extent of modification was 59% for the former and 60% for the latter determined by reversed phase chromatography essentially as described previously ([26]) and confirmed by Nano LC-Nanospray QTQF mass spectroscopy. Membrane scaffold protein MSP1D1(-) ([41]) was purified as described previously ([25]). Tar4E L378C, Tar4Q L378C, Tar4EΔpp-6H L378C, and Tar4QΔpp-6H L378C were purified, incorporated into Nanodiscs at approximately one receptor dimer per disc, and biotinylated at L378C as described previously ([23], [42]). […] These activities were confirmed for representative samples used in our analyses. Receptor-containing Nanodiscs were dialyzed into 50 mM Tris-HCl (pH 7.5), 0.5 mM EDTA, 10% (wt/vol) glycerol, and 100 mM NaCl. Prior to a binding experiment, the solution was changed using a spin desalting column to 50 mM Tris-HCl, 10% (wt/vol) glycerol, 5 mM MgCl2, and 50 mM KCl (pH 7.5).
(§3) Kinetics of CheB association and dissociation with Nanodisc-embedded Tar biotinylated at L378C were determined using biolayer interferometry ([22], [23]) as measured by a BLItz instrument (ForteBio, Menlo Park, CA, USA) and described in reference. Representative time course experiments are shown in Fig. S1 in the supplemental material. Measurements for CheB-P* and CheB-P*-I were in 50 mM Tris-HCl (pH 7.5), 10% (wt/vol) glycerol, 5 mM MgCl2, 50 mM KCl, and 2% (wt/vol) bovine serum albumin (BSA). Measurements for CheB and CheBc were in the same solution plus 2 mM dithiothreitol (DTT).
(§4) Using BLItz software, response curves were fit globally to a 1:1 binding model to yield apparent association rate constants (kon) and dissociation rate constants (koff). For analysis of complex patterns of binding, in which more than one binding reaction appeared to be contributing, for instance one that appeared saturable and another nonspecific, nonsaturable, the data were exported and fit globally to nonlinear exponential functions using OriginPro 2017. The best fits to the data were obtained using the following functions. R=R0 + Req[a(e^−kd1 t) + b(e^−kd2 t)] was used to globally fit dissociation time courses, with R being the response (in nanometers), a + b = 1, with a and b being the portion of the signal (in nanometers) for fast and slow phases, respectively, kd1 and kd2 being the respective dissociation rate constants, and Req being the response at equilibrium. Association data were fit using apparent dissociation rate constants kd1 and kd2, relevant CheB concentrations (C) and the equation R=R0 + Req[a(1 − e^−(ka1 C+kd1)t) + b(1 − e^−(ka2 C+kd2)t)]

[2] = molecular target: Tar4Q (chemoreceptor Tar, all-glutaminyl, pentapeptide-bearing); assay: CheB binding to pentapeptide-bearing Tar4Q in Nanodiscs (biolayer interferometry); set-up: species or system E. coli; conditions: Tar 4Q, pentapeptide yes, BLI; for dwell time (1/koff) / KA (equilibrium association constant) / kon (apparent association rate constant): pH 7.5, 2% BSA (plus 2 mM DTT for CheB and CheBc); for dwell time (1/koff): calculated from mean koff; for kon (apparent association rate constant): mean ± SD of at least three independent experiments
Procedure: as §1, §2, §3, §4

[3] = molecular target: Tar4EΔpp-6H L378C, E. coli Tar lacking the carboxyl-terminal pentapeptide, all-glutamyl form, homodimer in … (E. coli, UniProt P07017 1-553, L378C, biotinylated at L378C); assay: SPR
[4] = molecular target: Tar4E L378C, E. coli aspartate chemoreceptor Tar, all-glutamyl form with carboxyl-terminal pentapeptide, … (E. coli, UniProt P07017 1-553, L378C, biotinylated at L378C); assay: SPR
[5] = molecular target: Tar4Q L378C, E. coli aspartate chemoreceptor Tar, all-glutaminyl form with carboxyl-terminal pentapeptide, … (E. coli, UniProt P07017 1-553, L378C, biotinylated at L378C); assay: SPR
[6] = molecular target: Tar4QΔpp-6H L378C, E. coli Tar lacking the carboxyl-terminal pentapeptide, all-glutaminyl form, homodimer in … (E. coli, UniProt P07017 1-553, L378C, biotinylated at L378C); assay: SPR
[7] = molecular target: Tar4QΔpp-6H L378C, E. coli Tar lacking the carboxyl-terminal pentapeptide, all-glutaminyl form, homodimer in … (E. coli, UniProt P07017 1-553, L378C, biotinylated at L378C); assay: BLI; BLItz; biotinylated Tar homodimers in Nanodiscs held on an avidin sensor tip, CheB or CheBC in solution; 50 mM Tris-HCl pH 7.5, 10% glycerol, 5 mM MgCl2, 50 mM KCl, 2% BSA, 2 mM DTT; global fit, apparent rate constants, KD calculated from kon and koff; conditions: both partners purified
[8] = calculated from mean kon and koff, propagated SD

B1: methylesterase/deamidase CheB from E. coli, low-activity, unphosphorylated form (enzyme, UniProt P07330 1-349, looked up)
chain: MSKIRVLSVDDSALMRQIMTEIINSHSDMEMVATAPDPLVARDLIKKFNPDVLTLDVEMPRMDGLDFLEKLMRLRPMPVVMVSSLTGKGSEVTLRALELGAIDFVTKPQLGIREGMLAYNEMIAEKVRTAAKASLAAHKPLSAPTTLKAGPLLSSEKLIAIGASTGGTEAIRHVLQPLPLSSPALLITQHMPPGFTRSFADRLNKLCQIGVKEAEDGERVLPGHAYIAPGDRHMELSRSGANYQIKIHDGPAVNRHRPSVDVLFHSVAKQAGRNAVGVILTGMGNDGAAGMLAMRQAGAWTLAQNEASCVVFGMPREAINMGGVCEVVDLSQVSQQMLAKISAGQAIRI
notes: CheB methylesterase/deamidase of E. coli, unphosphorylated, from plasmid pCW/cheB; measured with 2 mM DTT in the buffer; also called low-activity CheB; unmodified CheB; source: E. coli K-12 RP3098 with pCW/cheB, purified
dwell time (1/koff) [1]: 1.6 ± 0.2 s
KA (equilibrium association constant) [1]: 1.2 ± 0.1 10^3 M^-1
kon (apparent association rate constant) [1]: 750 ± 8 M⁻¹ s⁻¹
Kd ([2]; 50 mM Tris-HCl pH 7.5, 10% glycerol, 5 mM MgCl2, 50 mM KCl, 2% BSA (plus 2 mM DTT for CheB and CheBc), calculated from mean kon and koff, propagated SD, read-out: KD (equilibrium dissociation constant)): 160 ± 30 µM
dwell time (1/koff) ([2]; propagated SD): 2.2 ± 0.1 s
KA (equilibrium association constant) [2, 8]: 6.3 ± 1 10^3 M^-1
kon (apparent association rate constant) [2]: 2,900 ± 480 M^-1s^-1
Ka [3]: 1200 M⁻¹
Ka [4]: 4400 M⁻¹
Ka [5]: 6300 M⁻¹
Ka [6]: 1700 M⁻¹
Kd [7]: 590 µM

B2: CheBC, catalytic domain of E. coli CheB lacking the regulatory domain and linker (domain or fragment)
chain: LSSEKLIAIGASTGGTEAIRHVLQPLPLSSPALLITQHMPPGFTRSFADRLNKLCQIGVKEAEDGERVLPGHAYIAPGDRHMELSRSGANYQIKIHDGPAVNRHRPSVDVLFHSVAKQAGRNAVGVILTGMGNDGAAGMLAMRQAGAWTLAQNEASCVVFGMPREAINMGGVCEVVDLSQVSQQMLAKISAGQAIRI
dwell time (1/koff) [1]: 2.3 ± 0.2 s
KA (equilibrium association constant) [1]: 1.5 ± 0.3 10^3 M^-1
kon (apparent association rate constant) [1]: 670 ± 140 M⁻¹ s⁻¹
dwell time (1/koff) ([2]; propagated SD): 2.1 ± 0.4 s
KA (equilibrium association constant) [2, 8]: 0.7 ± 0.2 10^3 M^-1
kon (apparent association rate constant) [2]: 350 ± 60 M⁻¹ s⁻¹
Ka [3]: 1500 M⁻¹
Ka [4]: 1700 M⁻¹
Ka [5]: 700 M⁻¹
Ka [6]: 800 M⁻¹
